For 3 molecules, binding result and Kd results are on record in publication PMC5567289, “Characterization and structural determination of a new anti-MET function-blocking antibody with binding epitope distinct from the ligand binding domain” (Scientific Reports, 2017).

As usually defined, the Kd is the constant that tells how readily two partners part at equilibrium.

Conditions in all cases: both partners purified
For one assay, the target named is T1, MET567 (Homo sapiens, UniProt P08581).
T1 construct: MET receptor (HGF/SF receptor), recombinant truncation of the ectodomain with the SEMA and CR domains and no Ig domain; The ectodomain is cut by furin into an alpha and a beta chain; written here as one chain; also called soluble fragment of the MET ectodomain comprising the SEMA and cysteine-rich (CR) domain
The assay can be described thus: SEC; 6 µM Fab and 4 µM MET (3:2 molar ratio) co-incubated 140 minutes at room temperature in 25 mM Tris pH 7.4, 150 mM NaCl; Superdex 200 10/300. Background: SEC sorts molecules by how far they enter the pores of the column.

The target in another assay is T2, MET (Homo sapiens, UniProt P08581).
T2 construct: MET receptor; Further methods are said to stand in the Supplementary Information file
The assay can be described thus: SPR; Biacore; mean of three experiments; 107_A07 Fab purified sequentially on KappaSelect and GammaBind Plus; MET construct and who was immobilised not stated.

Assay [1] deals with T3, MET928 (UniProt P08581).
T3 construct: MET receptor (HGF/SF receptor), recombinant ectodomain with the SEMA, CR and Ig1-4 domains; The ectodomain is cut by furin into an alpha and a beta chain; written here as one chain; also called MET extracellular domain (MET928); His-tagged MET928; source: recombinant
The assay can be described thus: SPR; CM5 chip coated with MET928; 7A2 scFv (134 nM, 268 nM), NK1 (238 nM, 476 nM) or a mixture (134 nM 7A2 scFv, 238 nM NK1); 60 s injections.

Another assay has as its target T4, MET741 (Homo sapiens, UniProt P08581).
T4 construct: MET receptor (HGF/SF receptor), recombinant truncation of the ectodomain with the SEMA, CR and Ig1-2 domains; The ectodomain is cut by furin into an alpha and a beta chain; written here as one chain; also called soluble MET741; his-tagged MET741; source: CHO Lec3.2.8.1 cells, purified (NiNTA, cation exchange MonoS)
The assay can be described thus: SEC; 6 µM Fab and 4 µM MET (3:2 molar ratio) co-incubated 140 minutes at room temperature in 25 mM Tris pH 7.4, 150 mM NaCl; Superdex 200 10/300.

Assay [2] addresses T3, MET928. Described as above.

T1 sequence (P08581 39-564): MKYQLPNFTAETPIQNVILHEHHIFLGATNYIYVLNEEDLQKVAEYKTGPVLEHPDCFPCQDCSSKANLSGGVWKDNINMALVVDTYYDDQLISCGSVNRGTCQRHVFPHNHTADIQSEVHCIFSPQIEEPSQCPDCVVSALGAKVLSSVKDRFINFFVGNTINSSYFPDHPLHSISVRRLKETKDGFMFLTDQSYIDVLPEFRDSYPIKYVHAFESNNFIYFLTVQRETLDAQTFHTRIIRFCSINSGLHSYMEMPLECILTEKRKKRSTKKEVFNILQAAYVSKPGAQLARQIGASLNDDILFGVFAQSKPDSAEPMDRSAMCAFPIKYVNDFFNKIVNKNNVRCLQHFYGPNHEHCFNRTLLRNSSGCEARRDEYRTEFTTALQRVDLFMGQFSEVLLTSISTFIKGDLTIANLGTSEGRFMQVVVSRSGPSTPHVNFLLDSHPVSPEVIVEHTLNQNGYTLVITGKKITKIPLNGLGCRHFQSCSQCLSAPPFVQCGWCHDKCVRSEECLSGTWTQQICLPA
T3 sequence (P08581 25-932): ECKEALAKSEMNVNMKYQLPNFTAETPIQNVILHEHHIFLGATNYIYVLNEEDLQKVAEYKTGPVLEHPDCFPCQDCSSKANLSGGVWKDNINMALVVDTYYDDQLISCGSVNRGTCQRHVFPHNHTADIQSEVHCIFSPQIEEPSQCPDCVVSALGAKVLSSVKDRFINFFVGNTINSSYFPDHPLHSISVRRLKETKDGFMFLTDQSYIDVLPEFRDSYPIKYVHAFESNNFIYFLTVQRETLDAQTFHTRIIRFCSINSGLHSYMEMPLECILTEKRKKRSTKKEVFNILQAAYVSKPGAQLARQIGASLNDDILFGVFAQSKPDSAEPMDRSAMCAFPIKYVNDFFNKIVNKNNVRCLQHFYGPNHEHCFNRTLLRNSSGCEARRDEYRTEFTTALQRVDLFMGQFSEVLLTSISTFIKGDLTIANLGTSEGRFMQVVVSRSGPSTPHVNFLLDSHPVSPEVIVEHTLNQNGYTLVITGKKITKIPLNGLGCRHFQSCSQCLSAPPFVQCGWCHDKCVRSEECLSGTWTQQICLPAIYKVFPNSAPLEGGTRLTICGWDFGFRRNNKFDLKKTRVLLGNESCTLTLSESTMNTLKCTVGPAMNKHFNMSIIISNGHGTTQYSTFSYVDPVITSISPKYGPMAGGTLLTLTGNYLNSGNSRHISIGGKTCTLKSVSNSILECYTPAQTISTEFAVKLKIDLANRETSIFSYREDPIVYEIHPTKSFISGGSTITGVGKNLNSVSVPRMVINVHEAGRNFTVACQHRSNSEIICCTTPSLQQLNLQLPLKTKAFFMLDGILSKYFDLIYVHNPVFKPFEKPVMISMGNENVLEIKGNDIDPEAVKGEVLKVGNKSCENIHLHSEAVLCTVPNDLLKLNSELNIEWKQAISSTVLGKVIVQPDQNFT
T4 sequence (P08581 25-741): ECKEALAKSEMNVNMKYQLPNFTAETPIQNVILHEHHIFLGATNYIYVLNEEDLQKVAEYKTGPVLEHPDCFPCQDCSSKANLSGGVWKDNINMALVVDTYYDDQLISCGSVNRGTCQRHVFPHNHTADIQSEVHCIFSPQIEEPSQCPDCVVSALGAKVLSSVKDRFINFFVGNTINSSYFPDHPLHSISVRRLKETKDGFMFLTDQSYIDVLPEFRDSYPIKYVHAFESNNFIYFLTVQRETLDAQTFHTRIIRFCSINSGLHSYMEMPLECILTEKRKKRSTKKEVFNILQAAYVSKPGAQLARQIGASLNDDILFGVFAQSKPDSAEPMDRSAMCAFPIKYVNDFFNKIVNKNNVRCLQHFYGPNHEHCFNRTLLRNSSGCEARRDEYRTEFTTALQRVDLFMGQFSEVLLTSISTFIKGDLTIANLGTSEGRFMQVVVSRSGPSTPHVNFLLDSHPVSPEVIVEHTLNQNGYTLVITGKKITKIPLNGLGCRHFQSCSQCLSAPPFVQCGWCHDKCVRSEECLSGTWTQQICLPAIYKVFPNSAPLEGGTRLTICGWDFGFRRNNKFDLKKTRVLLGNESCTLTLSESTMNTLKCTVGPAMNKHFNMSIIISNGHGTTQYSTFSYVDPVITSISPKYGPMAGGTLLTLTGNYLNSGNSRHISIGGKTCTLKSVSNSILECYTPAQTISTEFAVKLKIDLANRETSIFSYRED
T2 sequence (P08581 25-1390): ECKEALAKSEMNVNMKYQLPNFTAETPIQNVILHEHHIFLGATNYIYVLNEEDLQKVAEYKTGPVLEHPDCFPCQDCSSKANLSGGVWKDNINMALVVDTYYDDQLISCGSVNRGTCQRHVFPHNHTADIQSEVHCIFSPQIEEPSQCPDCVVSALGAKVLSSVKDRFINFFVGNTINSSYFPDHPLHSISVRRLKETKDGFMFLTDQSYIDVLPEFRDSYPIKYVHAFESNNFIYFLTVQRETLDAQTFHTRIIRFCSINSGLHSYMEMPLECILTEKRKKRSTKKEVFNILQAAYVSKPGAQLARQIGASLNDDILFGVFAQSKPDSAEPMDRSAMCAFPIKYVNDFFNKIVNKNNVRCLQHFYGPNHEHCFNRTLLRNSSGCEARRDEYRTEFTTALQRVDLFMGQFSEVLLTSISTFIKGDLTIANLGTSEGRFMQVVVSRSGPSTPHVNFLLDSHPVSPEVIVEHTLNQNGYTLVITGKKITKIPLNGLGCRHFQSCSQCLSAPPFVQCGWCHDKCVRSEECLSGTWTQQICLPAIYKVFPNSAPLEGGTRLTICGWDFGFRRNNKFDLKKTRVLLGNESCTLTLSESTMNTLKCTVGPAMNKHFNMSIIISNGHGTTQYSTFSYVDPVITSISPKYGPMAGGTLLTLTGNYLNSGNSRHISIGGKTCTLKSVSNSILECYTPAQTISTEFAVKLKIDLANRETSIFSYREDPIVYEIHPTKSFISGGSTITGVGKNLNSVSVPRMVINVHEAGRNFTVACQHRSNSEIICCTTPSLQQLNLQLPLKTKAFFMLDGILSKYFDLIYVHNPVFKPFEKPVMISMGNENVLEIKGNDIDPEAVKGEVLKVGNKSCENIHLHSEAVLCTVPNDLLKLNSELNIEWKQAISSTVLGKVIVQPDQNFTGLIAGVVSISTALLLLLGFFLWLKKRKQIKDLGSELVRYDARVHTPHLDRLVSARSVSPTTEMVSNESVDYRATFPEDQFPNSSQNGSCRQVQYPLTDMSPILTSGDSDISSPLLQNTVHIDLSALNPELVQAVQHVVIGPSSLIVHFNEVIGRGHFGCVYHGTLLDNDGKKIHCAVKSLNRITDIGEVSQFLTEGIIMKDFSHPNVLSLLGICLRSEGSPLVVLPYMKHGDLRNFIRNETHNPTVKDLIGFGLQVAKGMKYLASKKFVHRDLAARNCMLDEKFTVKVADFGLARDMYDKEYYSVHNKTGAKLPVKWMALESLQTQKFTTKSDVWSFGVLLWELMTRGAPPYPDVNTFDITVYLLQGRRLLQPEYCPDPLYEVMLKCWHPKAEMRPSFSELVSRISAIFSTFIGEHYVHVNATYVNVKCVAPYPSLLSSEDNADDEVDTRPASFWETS

B1: 107_A07 Fab (Fab, V domains shown)
VH: QMQLVQSGAEVKKPGAPVKVSCKVSGYTFTDYYMHWVQQAPGKGLEWMGLVDPEDGETIYAEKFQGRVTITADTSTDTAYMELSSLRSEDTAVYYCATDATTPYWGMMWWGQGTLVTVSS
VL: DIQMIQSPSSLSASVGDRVTITCQASQDISNYLNWYQQKPGRAPKVLIYDASNLETGVPSRFSGSGSGTEFTLTISNLRPDDFATYYCQQGDSFPLTFGGGTKVEIK
notes: Fab heavy chain is chain H of the deposited structure PDB 5LSP; Fab light chain is chain L of the deposited structure PDB 5LSP
As for B1, in the assay with MET567, the binding result is “no binding (tested: 6 µM Fab, 4 µM MET567)”. Moreover, the Kd with MET is 3.2 nM.

B2: 7A2 scFv (scFv, V domains shown)
VH: QMQLVQSGAEVKKPGAPVKVSCKVSGYTFTDYYMHWVQQAPGKGLEWMGLVDPEDGETIYAEKFQGRVTITADTSTDTAYMELSSLRSEDTAVYYCATDATTPYYGMDVWGQGTLVTVSS
VL: DIQMTQSPSSLSASVGDRVTITCQASQDISNYLNWYQQKPGRAPKVLIYDASNLETGVPSRFSGSGSGTEFTLTISNLRPDDFATYYCQQGDSFPLTFGGGTKVEIK
notes: VH of 7A2: as the VH of m1 (PDB 5LSP chain H) except in CDR3, where 7A2 has Y105 instead of W105; VL of 7A2: as the VL of m1 (PDB 5LSP chain L); also called clone 7A2; source: Pichia pastoris, purified (Ni-NTA, gel filtration)
For B2, in the assay with MET928 [1], the binding result is listed as “binds”.

B3: 7A2 Fab (Fab, V domains shown)
VH: QMQLVQSGAEVKKPGAPVKVSCKVSGYTFTDYYMHWVQQAPGKGLEWMGLVDPEDGETIYAEKFQGRVTITADTSTDTAYMELSSLRSEDTAVYYCATDATTPYYGMDVWGQGTLVTVSS
VL: DIQMTQSPSSLSASVGDRVTITCQASQDISNYLNWYQQKPGRAPKVLIYDASNLETGVPSRFSGSGSGTEFTLTISNLRPDDFATYYCQQGDSFPLTFGGGTKVEIK
notes: as the light chain of m1 (PDB 5LSP chain L): the matured clones came from VH CDR3 mutagenesis and VL mutants were not identified; also called Fab 7A2; Fab-formatted 7A2
For the molecule B3, the binding result with MET567 is on record as “no binding (tested: 6 µM Fab, 4 µM MET567)”; with MET741, “binds”; with MET928 [2], “binds”.
